# Assay results as given in patent US20210205413A1 (Nektar Therapeutics, priority 2018, published 2021).
# How the values were obtained:
# [1] = Single dose toxicokinetics in rats (SC, LS-2016-004); type: in vivo, Rat; details: mean of three rats per time point
# [2] = tested on: MRL/MpJ-Faslpr mice; assay: Mouse model of systemic lupus erythematosus (SLE); type: in vivo
# Method: The MRL/MpJ-Faslpr mouse model develops an autoimmune disease that reflects pathologies of human SLE, including lymph node enlargement, increased IgG levels, antinuclear antibody production, proteinuria, and kidney failure caused by inflammation of the glomeruli. […] On dosing days, a suitable quantity of test article is withdrawn and diluted with vehicle to arrive at the desired dosing concentration (0.03 mg/kg dose and 0.3 mg/kg dose); dose volume was 5 mL/kg. Animals used for the study are MRL/MpJ-Faslpr mice and MRL/MpJ naive, female mice, aged from 6-8 weeks. Animals are assigned to treatment groups by randomization. Treatment groups are described in Table 13 below. 45 MRL/MpJ-Faslpr mice are randomized into 3 groups (15 each for Groups 2-4) based on body weight and level of protein content in urine before the commencement of the experiment. Animals in Groups 2-4 receive vehicle or test article delivered subcutaneously as described in Table 6. Group 1-MRL/MpJ mice receive the vehicle as a negative control. Three (3) days after the first dose administration on Week 8, 3 mice from Groups 2-4 are humanely sacrificed and blood samples were collected and processed. Body weights are measured twice a week from the commencement of the study and continued throughout. Skin lesion pictures were taken when first observed and then at one week intervals. Urine is obtained the day before dosing (at baseline) and then collected weekly thereafter. Protein levels in the urine are measured using a Siemens Clinitek Status Analyzer. On sacrifice day (3 days after the last dose at the end of Week 20), all mice are anesthetized by intraperitoneal injection of chloral hydrate (50 mg/kg). Blood samples are collected, and centrifuged at 10000 r/min for 10 min to obtain serum samples. The serum is stored at −80° C. until clinical biochemistry testing. Serum samples (100 μl) are analyzed for anti-dsDNA level by ELISA (Mouse Anti-dsDNA IgG-specific ELISA Kit, Alpha Diagnostic International, Cat. No. 5120) and the serum tested for BUN concentration using a Hitachi 7020 Automatic Biochemistry Analyzer. For lymphocyte analysis, blood samples are collected in EDTA-K tubes and tested for CD3/CD4/CD8/Treg/NK/B cell % by flow cytometry. […] This study further elucidates the effect of RUR-IL-2-induced Tregs on control of the physiological immune response and disease progression in a representative animal model of SLE.
# [3] = Phase I single ascending subcutaneous dose study in healthy volunteers: pharmacokinetics; type: in vivo, human; details: for AUC0-14 d / Cmax / tmax: Single Dose Study
# Method: A double-blind, randomized, placebo-controlled study is conducted to evaluate the safety, tolerability, pharmacokinetics, and pharmacodynamics of single ascending low sub-cutaneous doses of an RUR20kD-IL-2 composition (RUR20kD-IL-2) in healthy volunteers. […] Twelve subjects are randomized to each dose cohort, nine of whom received a single subcutaneous dose of RUR20kD-IL-2 while three received placebo. […] The drug product is supplied in single-use glass vials and stored at 2-8° C. […] Placebo is a commercially available 0.9% sodium chloride solution. A starting dose of 0.3 μg/kg is chosen using the minimally anticipated biological effect level (MABEL) approach and is supported by the no observed adverse effect level (NOAEL) in the most sensitive species from nonclinical toxicology studies.
# The primary objective of the study is to evaluate the safety and tolerability of RUR20kD-IL-2 administered as a single subcutaneous dose. […] In a first phase of the study, immune markers are tested pre-dose up to 20 hours post-dose. Specifically, Tregs, CD4^+-T cells, CD8^+-T cells, natural killer (NK) cells, cytokines, soluble CD25, and RNA are tested in RUR20kD-IL-2- and placebo-receiving cohorts. In subsequent phases, the same immune markers are also tested at 4-, 5-, 6-, 7-, 8-, 10-, 12-, 15-, 18-, 20-, 25-, 30-, 40, and 50-days post-dose.
# [4] = tested on: Balb/C mice (OVA food allergy model); assay: Food allergy model (OVA sensitization and oral challenge); type: in vivo
# Method: To develop the DTH model, Balb/c mice are sensitized with a subcutaneous administration of a model antigen keyhole limpet hemocyanin (KLH) emulsified in complete and incomplete Freund's adjuvant. […] Inflamed ears are subjected to immunohistochemistry (IHC) to quantify percent of FoxP3+ Treg cells post KLH challenge. The specificity of response is assessed after an additional 3-4 weeks with no treatment by either KLH rechallenge or conducting sensitization and challenge with an unrelated antigen ovalbumin (OVA). […] Post ten days of 2nd sensitization, mice are challenged with OVA eight times orally, every alternative day. […] Severity of allergic response is assessed by clinical scoring within 30-45 min of post 8th challenge. Further, serum mast cell protease 1 (MCPT 1) and OVA specific IgE titers are quantified. The percent Treg is determined by flow cytometry in peripheral blood and in spleen.
# [5] = repeat administration over 12 weeks
substance,measurement,setting,value
"(1,3-bis(methoxypoly(ethylene glycol)10kDcarbamoyl)-2-propanoxy)-4-butanamide)interleukin-2) [RUR20kD-IL-2]",AUCinf,[1]; single SC 0.01 mg/kg,5.23 µg·h/mL
same,AUClast,[1]; single SC 0.01 mg/kg,5.21 µg·h/mL
same,Cmax,[1]; single SC 0.01 mg/kg,0.06 µg/mL
same,Half-life,[1]; single SC 0.01 mg/kg,1.41 days
same,MRTinf,[1]; single SC 0.01 mg/kg,2.63 days
same,tmax,[1]; single SC 0.01 mg/kg,1 days
same,AUCinf,[1]; single SC 0.1 mg/kg,73.0 µg·h/mL
same,AUClast,[1]; single SC 0.1 mg/kg,71.1 µg·h/mL
same,Cmax,[1]; single SC 0.1 mg/kg,0.64 µg/mL
same,Half-life,[1]; single SC 0.1 mg/kg,2.44 days
same,MRTinf,[1]; single SC 0.1 mg/kg,4.08 days
same,tmax,[1]; single SC 0.1 mg/kg,1 days
same,AUCinf,[1]; single SC 1.5 mg/kg,678 µg·h/mL
same,AUClast,[1]; single SC 1.5 mg/kg,672 µg·h/mL
same,Cmax,[1]; single SC 1.5 mg/kg,9.30 µg/mL
same,Half-life,[1]; single SC 1.5 mg/kg,1.97 days
same,MRTinf,[1]; single SC 1.5 mg/kg,3.07 days
same,tmax,[1]; single SC 1.5 mg/kg,2 days
same,protein levels in urine (biomarker of kidney damage),"[2]; 0.3 mg/kg s.c. twice weekly, week 8 to week 20",nearly the same levels as observed in normal mice
same,Treg elevation,[2]; [5],sustains Treg elevation
same,blood urea nitrogen,[2]; [5],reduces blood urea nitrogen
same,urine protein levels and kidney histopathology,[2]; [5],returns urine protein levels and kidney histopathology to normal
same,AUC0-14 d,"[3]; 3.0 μg/kg, Median (n = 9)",214 ng·days/mL
same,Cmax,"[3]; 3.0 μg/kg, Median (n = 9)",21 ng/mL
same,tmax,"[3]; 3.0 μg/kg, Median (n = 9)",3.5 days
same,AUC0-14 d,"[3]; 3.0 μg/kg, max",388 ng·days/mL
same,Cmax,"[3]; 3.0 μg/kg, max",41 ng/mL
same,tmax,"[3]; 3.0 μg/kg, max",14 days
same,AUC0-14 d,"[3]; 3.0 μg/kg, min",143 ng·days/mL
same,Cmax,"[3]; 3.0 μg/kg, min",13 ng/mL
same,tmax,"[3]; 3.0 μg/kg, min",1.3 days
same,Cmax,"[3]; 6.0 μg/kg, Median (n = 9)",46 ng/mL
same,tmax,"[3]; 6.0 μg/kg, Median (n = 9)",5 days
same,AUC0-14 d,"[3]; 6.0 μg/kg, max",705 ng·days/mL
same,Cmax,"[3]; 6.0 μg/kg, max",70 ng/mL
same,tmax,"[3]; 6.0 μg/kg, max",9 days
same,AUC0-14 d,"[3]; 6.0 μg/kg, min",73 ng·days/mL
same,Cmax,"[3]; 6.0 μg/kg, min",13 ng/mL
same,tmax,"[3]; 6.0 μg/kg, min",2 days
same,Half-life,"[3]; healthy volunteers, single SC dose, decline after approximately 2 weeks post-dose, preliminary",8 to 9 days
same,time of maximum concentrations post-dose,"[3]; healthy volunteers, single SC dose, preliminary PK analysis",4 to 6 days
same,"Tregs (flow cytometry, peripheral blood and spleen)",[4]; SC 0.1 mg/kg q3d×3,significant increase in Tregs
same,levels of MCPT1 and anti-OVA specific IgE titers,[4]; SC 0.1 mg/kg q3d×3,significant decrease in levels of MCPT1 and anti-OVA specific IgE titers
same,anaphylaxis symptoms (clinical scores),"[4]; SC 0.1 mg/kg q3d×3, repeated oral OVA",efficacious in decreasing the high degree of anaphylaxis symptoms
